These are literature values, as cited in paper PMC8262464.

The target of the data set is TLR2 (Homo sapiens) (UniProt O60603). Description: SPR.
Sequence of UniProt O60603 (O60603 21-588): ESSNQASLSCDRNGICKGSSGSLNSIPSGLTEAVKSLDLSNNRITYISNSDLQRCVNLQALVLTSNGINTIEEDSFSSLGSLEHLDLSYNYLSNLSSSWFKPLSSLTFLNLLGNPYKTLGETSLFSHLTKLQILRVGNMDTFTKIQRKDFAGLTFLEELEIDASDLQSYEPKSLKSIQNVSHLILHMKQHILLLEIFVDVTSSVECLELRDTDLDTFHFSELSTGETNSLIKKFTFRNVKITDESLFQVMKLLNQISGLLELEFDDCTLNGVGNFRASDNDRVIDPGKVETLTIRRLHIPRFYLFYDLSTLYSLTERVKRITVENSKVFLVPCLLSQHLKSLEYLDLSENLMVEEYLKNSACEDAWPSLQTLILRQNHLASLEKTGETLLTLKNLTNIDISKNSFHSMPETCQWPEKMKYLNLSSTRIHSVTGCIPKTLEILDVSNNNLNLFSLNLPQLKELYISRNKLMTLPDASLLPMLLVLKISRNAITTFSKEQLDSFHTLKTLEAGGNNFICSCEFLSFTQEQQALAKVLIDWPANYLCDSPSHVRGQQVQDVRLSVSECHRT

Turning to MMP2 (from UniProt P08253), the Kd was 0.0322 µM.

By Kd is commonly meant a measure of binding affinity in units of concentration.
